T1: HepG2 cells (which express ASGR1) (Homo sapiens, UniProt P07306)
T1 construct: endogenous in cells; host or cells: HepG2
T1 sequence (P07306 1-291): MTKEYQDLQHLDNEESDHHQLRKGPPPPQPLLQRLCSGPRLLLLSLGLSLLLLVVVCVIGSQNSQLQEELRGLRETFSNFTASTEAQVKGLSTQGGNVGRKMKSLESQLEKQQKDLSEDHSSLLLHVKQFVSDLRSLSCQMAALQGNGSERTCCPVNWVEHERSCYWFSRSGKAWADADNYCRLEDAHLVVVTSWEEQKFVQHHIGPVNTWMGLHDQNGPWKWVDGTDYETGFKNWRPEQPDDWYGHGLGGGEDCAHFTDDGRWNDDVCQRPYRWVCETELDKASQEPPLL


The molecules below were run against T1, HepG2 cells (which express ASGR1) (assay: Guava HepG2 cell binding screen of humanized anti-ASGR1 clones). Conditions: humanized G2D clones (Table 5); two numbers per cell, not explained.
Design: unit not given here
Method: Hybridomas producing monoclonal antibodies (mAbs) specific for human ASGR1 were prepared from Balb/C mice immunized with ASGR1-AviHis at a service provider using their propriety protocol. Antibody heavy and light chain sequences were obtained, amplified, and cloned. Clone supernatants containing the expressed mAbs were screened for binding to a human ASGR1-IgG1Fc fusion protein, and those with a positive signal as measured by enzyme linked immunosorbent assay (ELISA) were screened for cell binding on HepG2 cells (which express ASGR1).

Row | Guava HepG2 Screen | Molecule
1 | 164/85 | hzG2D-33: humanized G2D clone; "G2D VL region ... of clones 1-16, 19-21, 26-29, 31, and 33 ... grafted into the human germline sequence VKI-L1 with JK4" (antibody, V domains shown, Synthetic sequence hzG2.51D VH R66K, V67A, T68S, I69L, R71V, R84T, A93T, R94S; Synthetic sequence hzG2D VLa) VH: QVQLVQSGAEVKKPGASVKVSCKASGYTFTGYYMHWVRQAPGQRLEWMGRINPNNGATNYNQNFKDKASLTVDTSASTAYMELSSLTSEDTAVYYCTSVNFYYWGQGTTVTVSS VL: DIQMTQSPSSLSASVGDRVTITCKASQVINSYLSWFQQKPGKAPKSLIYRANTLVDGVPSRFSGSGSGTDFTLTISSLQPEDFATYYCLQYAEFPYTFGGGTKVEIK
2 | 131/95 | hzG2D-3: humanized G2D clone; "G2D VL region ... of clones 1-16, 19-21, 26-29, 31, and 33 ... grafted into the human germline sequence VKI-L1 with JK4" (antibody, V domains shown, Synthetic sequence hzG2.45D VH A93T, R94S, V109L; Synthetic sequence hzG2D VLa) VH: QVQLVQSGAEVKKPGASVKVSCKASGYTFTGYYMHWVRQAPGQRLEWMGRINPNNGATNYNQNFKDRVTITRDTSASTAYMELSSLRSEDTAVYYCTSVNFYYWGQGTTLTVSS VL: DIQMTQSPSSLSASVGDRVTITCKASQVINSYLSWFQQKPGKAPKSLIYRANTLVDGVPSRFSGSGSGTDFTLTISSLQPEDFATYYCLQYAEFPYTFGGGTKVEIK
3 | 149/63 | hzG2D-10: humanized G2D clone; "G2D VL region ... of clones 1-16, 19-21, 26-29, 31, and 33 ... grafted into the human germline sequence VKI-L1 with JK4" (antibody, V domains shown, Synthetic sequence hzG2.44D VH T68S, I69L, R71V, A93T, R94S, V109L; Synthetic sequence hzG2D VLa) VH: QVQLVQSGAEVKKPGASVKVSCKASGYTFTGYYMHWVRQAPGQRLEWMGRINPNNGATNYNQNFKDRVSLTVDTSASTAYMELSSLRSEDTAVYYCTSVNFYYWGQGTTLTVSS VL: DIQMTQSPSSLSASVGDRVTITCKASQVINSYLSWFQQKPGKAPKSLIYRANTLVDGVPSRFSGSGSGTDFTLTISSLQPEDFATYYCLQYAEFPYTFGGGTKVEIK
4 | 194/109 | hzG2D-34: humanized G2D clone; "G2D VL region ... of clones 22, 23, 30, 32, and 34-37 ... grafted into the human germline sequence VKI-O2 with JK4" (antibody, V domains shown, Synthetic sequence hzG2.51D VH R66K, V67A, T68S, I69L, R71V, R84T, A93T, R94S; Synthetic sequence hzG2D VLb) VH: QVQLVQSGAEVKKPGASVKVSCKASGYTFTGYYMHWVRQAPGQRLEWMGRINPNNGATNYNQNFKDKASLTVDTSASTAYMELSSLTSEDTAVYYCTSVNFYYWGQGTTVTVSS VL: DIQMTQSPSSLSASVGDRVTITCKASQVINSYLSWYQQKPGKAPKLLIYRANTLVDGVPSRFSGSGSGTDFTLTISSLQPEDFATYYCLQYAEFPYTFGGGTKVEIK
5 | 38/20 | hzG2D-2: humanized G2D clone; "G2D VL region ... of clones 1-16, 19-21, 26-29, 31, and 33 ... grafted into the human germline sequence VKI-L1 with JK4" (antibody, V domains shown, Synthetic sequence hzG2.1D VH T28S, V109L; Synthetic sequence hzG2D VLa) VH: QVQLVQSGAEVKKPGASVKVSCKASGYSFTGYYMHWVRQAPGQRLEWMGRINPNNGATNYNQNFKDRVTITRDTSASTAYMELSSLRSEDTAVYYCARVNFYYWGQGTTLTVSS VL: DIQMTQSPSSLSASVGDRVTITCKASQVINSYLSWFQQKPGKAPKSLIYRANTLVDGVPSRFSGSGSGTDFTLTISSLQPEDFATYYCLQYAEFPYTFGGGTKVEIK
6 | 155/117 | hzG2D-9: humanized G2D clone; "G2D VL region ... of clones 1-16, 19-21, 26-29, 31, and 33 ... grafted into the human germline sequence VKI-L1 with JK4" (antibody, V domains shown, Synthetic sequence hzG2.40D VH R66K, V67A, A93T, R94S, V109L; Synthetic sequence hzG2D VLa) VH: QVQLVQSGAEVKKPGASVKVSCKASGYTFTGYYMHWVRQAPGQRLEWMGRINPNNGATNYNQNFKDKATITRDTSASTAYMELSSLRSEDTAVYYCTSVNFYYWGQGTTLTVSS VL: DIQMTQSPSSLSASVGDRVTITCKASQVINSYLSWFQQKPGKAPKSLIYRANTLVDGVPSRFSGSGSGTDFTLTISSLQPEDFATYYCLQYAEFPYTFGGGTKVEIK
7 | 39/23 | hzG2D-6: humanized G2D clone; "G2D VL region ... of clones 1-16, 19-21, 26-29, 31, and 33 ... grafted into the human germline sequence VKI-L1 with JK4" (antibody, V domains shown, Synthetic sequence hzG2.43D VH T68S, I69L, R71V, V109L; Synthetic sequence hzG2D VLa) VH: QVQLVQSGAEVKKPGASVKVSCKASGYTFTGYYMHWVRQAPGQRLEWMGRINPNNGATNYNQNFKDRVSLTVDTSASTAYMELSSLRSEDTAVYYCARVNFYYWGQGTTLTVSS VL: DIQMTQSPSSLSASVGDRVTITCKASQVINSYLSWFQQKPGKAPKSLIYRANTLVDGVPSRFSGSGSGTDFTLTISSLQPEDFATYYCLQYAEFPYTFGGGTKVEIK
8 | 55/22 | hzG2D-4: humanized G2D clone; "G2D VL region ... of clones 1-16, 19-21, 26-29, 31, and 33 ... grafted into the human germline sequence VKI-L1 with JK4" (antibody, V domains shown, Synthetic sequence hzG2.39D VH R66K, V67A, V109L; Synthetic sequence hzG2D VLa) VH: QVQLVQSGAEVKKPGASVKVSCKASGYTFTGYYMHWVRQAPGQRLEWMGRINPNNGATNYNQNFKDKATITRDTSASTAYMELSSLRSEDTAVYYCARVNFYYWGQGTTLTVSS VL: DIQMTQSPSSLSASVGDRVTITCKASQVINSYLSWFQQKPGKAPKSLIYRANTLVDGVPSRFSGSGSGTDFTLTISSLQPEDFATYYCLQYAEFPYTFGGGTKVEIK
9 | 91/55 | hzG2D-5: humanized G2D clone; "G2D VL region ... of clones 1-16, 19-21, 26-29, 31, and 33 ... grafted into the human germline sequence VKI-L1 with JK4" (antibody, V domains shown, Synthetic sequence hzG2.8D VH T28S, A93T, R94S, V109L; Synthetic sequence hzG2D VLa) VH: QVQLVQSGAEVKKPGASVKVSCKASGYSFTGYYMHWVRQAPGQRLEWMGRINPNNGATNYNQNFKDRVTITRDTSASTAYMELSSLRSEDTAVYYCTSVNFYYWGQGTTLTVSS VL: DIQMTQSPSSLSASVGDRVTITCKASQVINSYLSWFQQKPGKAPKSLIYRANTLVDGVPSRFSGSGSGTDFTLTISSLQPEDFATYYCLQYAEFPYTFGGGTKVEIK
10 | 46/22 | hzG2D-7: humanized G2D clone; "G2D VL region ... of clones 1-16, 19-21, 26-29, 31, and 33 ... grafted into the human germline sequence VKI-L1 with JK4" (antibody, V domains shown, Synthetic sequence hzG2.2D VH T28S, R66K, V67A, V109L; Synthetic sequence hzG2D VLa) VH: QVQLVQSGAEVKKPGASVKVSCKASGYSFTGYYMHWVRQAPGQRLEWMGRINPNNGATNYNQNFKDKATITRDTSASTAYMELSSLRSEDTAVYYCARVNFYYWGQGTTLTVSS VL: DIQMTQSPSSLSASVGDRVTITCKASQVINSYLSWFQQKPGKAPKSLIYRANTLVDGVPSRFSGSGSGTDFTLTISSLQPEDFATYYCLQYAEFPYTFGGGTKVEIK
11 | 31/21 | hzG2D-8: humanized G2D clone; "G2D VL region ... of clones 1-16, 19-21, 26-29, 31, and 33 ... grafted into the human germline sequence VKI-L1 with JK4" (antibody, V domains shown, Synthetic sequence hzG2.6D VH T28S, T68S, I69L, R71V, V109L; Synthetic sequence hzG2D VLa) VH: QVQLVQSGAEVKKPGASVKVSCKASGYSFTGYYMHWVRQAPGQRLEWMGRINPNNGATNYNQNFKDRVSLTVDTSASTAYMELSSLRSEDTAVYYCARVNFYYWGQGTTLTVSS VL: DIQMTQSPSSLSASVGDRVTITCKASQVINSYLSWFQQKPGKAPKSLIYRANTLVDGVPSRFSGSGSGTDFTLTISSLQPEDFATYYCLQYAEFPYTFGGGTKVEIK
